According to the supplement of paper PMC10567573:

B1: TRAF3IP2 (parent)
chain: PGQPLPGASVRGLHPVQKVILNYP
B2: KCNA3 (parent)
chain: GERVVINISGLRFETQLKTLCQFP

Variants of: B1
Assay: protein stability index of a GFP-peptide fusion (GPS, HEK-293T) (PSI 1-6); higher = more stable
Conditions: c terminus: a fixed tail appended
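Note: lentivirally expressed fusions sorted by FACS into six bins by GFP to DsRed ratio, PSI derived from sequencing read proportions per bin multiplied by bin number.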

Protein stability index, by site and new letter:
P4: A 3.17, D 3.03, E 3.52, G 2.22, F 2.92, H 3.08, C 2.73
P1: G 2.86, N 3.63, W 2.45, H 3.31, Y 2.49, S 2.62, D 2.97, E 3.31, F 3, V 3.25, I 2.99, M 3, Q 3.47, K 3.02, T 2.65, C 1.73, L 2.78
Q3: K 3.09, G 4.09, R 3.11, W 2.31, A 3.28, D 3.15, P 3.57, C 2.71, L 2.96, T 3.12, N 3.28, F 2.42, E 3.65, M 3.34, V 3.42, Y 2.41, S 3.97, I 2.88, H 2.72
G2: P 3.35, E 3.79, R 3.39, S 2.81, C 2.22, W 2.15, K 2.58, D 4.21, M 2.44, N 2.65, H 2.06, Q 2.85, V 3.21, A 2.89, F 2.92, T 3.21, I 2.62, L 2.23

Variants of: B2
Assay: as above
Conditions: c terminus: a fixed tail appended

Protein stability index: each site, then its substitutions
C21: T 2.68, I 3.26, P 3.67, V 1.81, M 1.12, F 2.95, D 2.14, G 1, R 3.08, Q 2.57, N 1.37, H 1.91
K18: C 1.92, I 3.07, A 3.07, M 3.17, S 1.78, D 3.02, Q 1.87, E 3.06, R 2.29
L20: M 2.22, D 1.22, C 1.39, I 1.56, A 2.24, Q 1.2, K 3.74, G 1.95, N 2.33, R 2.84, S 2.34
F23: K 1.59, D 2.25, S 2.88, L 1.95, N 1.52, I 2.48, R 1.92, E 2.2, C 3.65, A 2.41, Q 1.94, T 1.36, H 3.14
Q22: E 2.39, T 2.59, G 2.94, A 1.9, N 2.1, M 3.99, C 4.8, H 2.26, D 3.65, L 1.84
T19: E 2, Q 1.28, M 3.15, K 1.45, N 1.34, C 3.24, F 1.76, H 1.78, R 1.32, P 1.49, A 1.87
L17: R 1.87, H 3.03, N 2.04, D 2.06, P 2.58, T 2.85, E 1.87, I 2.92, V 2.92, K 1.42, A 2.88
T15: N 3.66, E 2.62, R 2.69, G 4.2, L 3.24, Q 2.31, Y 2.63
P24: L 2.2, I 2, K 1.44, C 2.4, W 1.69, N 3.07, Y 2.26, V 1.04, E 4.68, G 2.75, F 3.52, A 2.47
Q16: G 2.49, S 2.69, H 2.53, D 1.87, T 1.39, N 1.04, P 2, M 4.05, Y 2.02, F 2.47
